The nanobody polyreactivity screen of Harvey et al. (2022)

Assay: yeast display, Sf9 membrane polyspecificity reagent, FACS + sequencing; frameworks hold sequencing errors
How it was run: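 Sorting gates, low and high (top ~1%), were placed on anti-HA fluorescence to track expression and on streptavidin fluorescence to track reagent binding. A clone's polyreactivity label is taken from the gate it came out of. The reagent was 10% biotinylated, detergent-solubilized Sf9 membrane, applied for 1 hour at 4 °C to galactose-induced yeast display cells.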

QVQLVESGGGLVQAGGSLRLSCAASGSIFIPYAMGWYRQAPGKERELVAAISRRGGSTYYADSVKGRFTISRDNAKNTVYLQMNSLKPEDTAVYYCNKDVNAYGYFEYYYWGQGTQVTVSS
polyreactivity (PSR sort gate): low polyreactivity

QVQLVESGGGLVQAGGSLRLSCAASGSIFIRNAMGWYRQAPGKERELVAAISWGGARTYYADSVKWRFTISRDNAKNTVYLQMNSLKPEDTAVYYCNALNVRGNKFDYWGQGTQVSVSS
polyreactivity (PSR sort gate): high polyreactivity

QVQLVESGGGLVQAGGSLRLSCAASGSIFIRNAMGWYRQAPGKERELVASISRSGAYTRYADSVKGRFTISRDNAKNTVYLQMNSLKPEDTAVYYCAVRLVNYLSYWRTYNYWGQGTQVTVSS
polyreactivity (PSR sort gate): high polyreactivity

QVQLVESGGGLVQAGGSLRLSCAASGSIFIRNVMGWSRQAPGKERELVAAISSRGGSTYYADSVKGRFTISRDNAKNTVDLQMNSLKPEDTAVYYCNRYSYLFPYYWKYDYWGQGTQVTVSS
polyreactivity (PSR sort gate): high polyreactivity

QVQLVESGGGLVQAGGSLRLSCAASGSIFISNAMGWYRQAPGKERELFAAINWTTGRTRYADSVKGRFTISRDNAKNTVYLQMNSLKPEDTAVYYCAARPYGGGRRSIYYYWGQGNQVTVSS
polyreactivity (PSR sort gate): high polyreactivity

QVQLVESGGGLVQAGGSLRLSCAASGSIFISNAMGWYRQAPGKERELVAAISRSGARTYYADSVKGRFTISRDNAKNTVYLQMNSLKPEDTAVYYCAVDGYSPYKYDYWGQGTQVTVSS
polyreactivity (PSR sort gate): high polyreactivity

QVQLVESGGGLVQAGGSLRLSCAASGSIFISNAMGWYRQAPGKERELVAAITSSGGSTYYADSVKGRFTISRDNAKNTVYLQMNSLKPEDTAVYYCAARPGRNYYYWGQGTQVTVSS
polyreactivity (PSR sort gate): high polyreactivity

QVQLVESGGGLVQAGGSLRLSCAASGSIFITYAMGWYRQAPGKERELVAAIRDSGDRTYYADSVKGRFTISRDNAKNTVYLQMNSLKPEDTAVYYCTARCQEPLKYDYSGQGTQVTVSS
polyreactivity (PSR sort gate): low polyreactivity

QVQLVESGGGLVQAGGSLRLSCAASGSIFITYAMGWYRQAPGKERELVAAITDSGDSTYYADSVKGRFTISRDNAKNTVYLQMISLKPEDTAVYYCAKRYYGSYSHFIRTDGYWGQGTQVTVSS
polyreactivity (PSR sort gate): low polyreactivity

QVQLVESGGGLVQAGGSLRLSCAASGSIFITYARGWYRQAPGKERELVAAIRDSGDRTYYADSVKGRFTISRDNAKNTVYLQMISLKPEDTAVYYCNARWQEPLKYDYWGQGTQVTVSS
polyreactivity (PSR sort gate): low polyreactivity

QVQLVESGGGLVQAGGSLRLSCAASGSIFIVNDMGWYRQAPGKERELVAAISGRGGNTNYADSVKVRFTISRDNAKNTVYLQMNSLKPEDTSVYFCAARHTRDYDYWGQGTQVTVSS
polyreactivity (PSR sort gate): high polyreactivity

QVQLVESGGGLVQAGGSLRLSCAASGSIFIVYAMGWYRQAPGKERELVAAISWSGGSTYYADSVKGRFTISRDNAKNTVYLQMNSLKPEDTAVYYCAAKYTLPFRDVKYYSWGQGTQVTVSS
polyreactivity (PSR sort gate): high polyreactivity

QVQLVESGGGLVQAGGSLRLSCAASGSIFIVYAMGWYRQAPGKERELVAGIRGRGGSTYYADSVKGRFTISRDNAKNTVYLQMNSLKPEDTAVYYCAANPRSYQSPYGYWGQGTQVTVSS
polyreactivity (PSR sort gate): high polyreactivity

QVQLVESGGGLVQAGGSLRLSCAASGSIFIVYAMGWYRQAPGKERELVATITSGGSTNYADSVKGRFTISRDNAKNTVYVQMNSLKPEVTAVYYCAAESYWGSGVVPGYDYWGQGTQVTVSS
polyreactivity (PSR sort gate): low polyreactivity

QVQLVESGGGLVQAGGSLRLSCAASGSIFIWNALGCYRQAPGKERELVAAIRSSGGTTYYADSVKGRFTISRDNAKYTVYVQMNSLKPEDTAVYYCARRGYSSSYRYPRYYYWGQGTQVTVSS
polyreactivity (PSR sort gate): high polyreactivity

QVQLVESGGGLVQAGGSLRLSCAASGSIFIWNAMGWYRQAPGKERELVAAISFSGGSTYYADSVKGRFTISRDNAKNTVYLQMNSLKPEDTAVYYCAADSFSGRYYWWEYDYWGQGTQVTVSS
polyreactivity (PSR sort gate): low polyreactivity

QVQLVESGGGLVQAGGSLRLSCAASGSIFIWNAMGWYRQAPGKERELVAAISFSGGSTYYADSVKGRFTISRDNAKNTVYLQMNSLKPEDTAVYYCAADSYSGRYYWWEYDYWGQGTQVTVSS
polyreactivity (PSR sort gate): low polyreactivity

QVQLVESGGGLVQAGGSLRLSCAASGSIFIYNARGWYRQAPGKERELVAAINWTGGSTYYADSVKGRFTISRDNAKNTVYLQMNSLKPEDTAVYYCNALRYGSTRGYDYWGQGTQVTVSS
polyreactivity (PSR sort gate): high polyreactivity

QVQLVESGGGLVQAGGSLRLSCAASGSIFIYYAMGWYRQAPGKERELVAAISFSGARTYYADSVKGRFTISRDNAKNTVFLQMNSLKPEDTAVYYCNVEIGTGDYDYWGQGTQVTVSS
polyreactivity (PSR sort gate): low polyreactivity

QVQLVESGGGLVQAGGSLRLSCAASGSIFKANAMGWYRQAPGKESELVATITSSGTRTYYADSVKGRFTISRDNAKNTVYLQMNSLKPEDTAVYYCNARAYPYQRGRYGYWGQGTQVTVSS
polyreactivity (PSR sort gate): high polyreactivity

QVQLVESGGGLVQAGGSLRLSCAASGSIFKEYAMGWYRQAPGKERELVATISWSGGSTYYADSVKGRFTISRDNAKNTVYLQMNSLKPEDTAVYYCNKRTPWWYVVRYDYWGQGTQVTVSS
polyreactivity (PSR sort gate): high polyreactivity

QVQLVESGGGLVQAGGSLRLSCAASGSIFKGNAMGWYRQAPGTERELVASITRSVARTYYADSVKGRFTISRDNAKNTVFLLMNSLKAEDTAVYYCAADWYQWGGRYYAPRYYYWGQGTQVTVSS
polyreactivity (PSR sort gate): high polyreactivity

QVQLVESGGGLVQAGGSLRLSCAASGSIFKGYAMGWSRQAPGKERELVASITSSGGSTYYADSVKGRFTISRDNAKNTVYLQMNCLKPEDTAVYYCATDHDSVRVLVSSTSDYDYWGQGTQVTVSS
polyreactivity (PSR sort gate): low polyreactivity

QVQLVESGGGLVQAGGSLRLSCAASGSIFKPYAMGWYRQAPGKERELVAAINRGGTSTYYADSVKGRFTISRDNAKNTVYLQMISLKPEDTAVYYCAAPNRYSVPMYYWGQGTQVTVSS
polyreactivity (PSR sort gate): low polyreactivity

QVQLVESGGGLVQAGGSLRLSCAASGSIFKQYAMGWYRQAPGKERELVARITGSGGSTYYADSVKGRFTISRDNAKNTVYLQLNSLKPEDTAVYYCANKRYARSSGGYDYWGQGTQVTVSS
polyreactivity (PSR sort gate): low polyreactivity

QVQLVESGGGLVQAGGSLRLSCAASGSIFKQYAMGWYRQAPGKERELVARITGSGGSTYYADSVKGRFTISRDNAKNTVYLQMNSLKPEDTAVYYCATKRYARSSGGYDYWGQGTQVTVSS
polyreactivity (PSR sort gate): low polyreactivity

QVQLVESGGGLVQAGGSLRLSCAASGSIFKRYAMGWYRHAPGKERELVAAISYSGGSTNYADSVKGRFTISRDNAKNTVYLQMNSLKPEDTAVYYCAKRSTSRGYDYWGQGTQVTVSS
polyreactivity (PSR sort gate): high polyreactivity

QVQLVESGGGLVQAGGSLRLSCAASGSIFKRYAMGWYRQAPGKERELVASISSRGSSTNYADSVKGRFTISRDNAKNTVYLQMNSLKPEDTAVYYCAAEVYRGKYWSTYRGGDYWGQGTQVTVSS
polyreactivity (PSR sort gate): high polyreactivity

QVQLVESGGGLVQAGGSLRLSCAASGSIFKTNAMGWYRQAPGKERELVAAITGSGGSTYYADSVKGRFTISRDNAKNTVYLQMNSLKPEDTAVYYCAKRSYRPILRWSYDYWGQGTQVTVSS
polyreactivity (PSR sort gate): low polyreactivity

QVQLVESGGGLVQAGGSLRLSCAASGSIFKTYAMGWNRQAPGKEREFVARITSSGGRTYYADSVKGRFTISRDNAKNTVYLQMNSLKPEDTAVYYCAKPYPRGYTTYSYDYWGQGTQVTVSS
polyreactivity (PSR sort gate): high polyreactivity

QVQLVESGGGLVQAGGSLRLSCAASGSIFKVYAMGWYRQAPGKEREIVAAITSSDSNTNYADSVKGRFTISRDNEKNTVYLQMNSLKPEDTAVYYCNARIYTRRYVPHYGFNYWGQGTQVTVSS
polyreactivity (PSR sort gate): low polyreactivity

QVQLVESGGGLVQAGGSLRLSCAASGSIFKVYAMGWYRQAPGKERELVATISGSGGSTYYADSVKGRFTISRDNAKKTVYLQMNSLKPEDTAVYYCAADAGYAFAVGGGWVEALYDYWGQGTQVTVSS
polyreactivity (PSR sort gate): low polyreactivity

QVQLVESGGGLVQAGGSLRLSCAASGSIFKWNDMGWYRQSPGKERELVAAITWSGGRTYYADSVKGRFTISRDNAKNTVYLQMNSLKPEDTAVYYCAATQYRSDGWRYDYWGQGTQVTVSS
polyreactivity (PSR sort gate): high polyreactivity

QVQLVESGGGLVQAGGSLRLSCAASGSIFKYNAMGWYRQAPGKEREFVAAISSSSGNTYYADSVKGRFTISRDNAKNSVYIQMNSLKPEDTAVYYCAARTFAYRRGWFGYWGQGTQVTVSS
polyreactivity (PSR sort gate): high polyreactivity

QVQLVESGGGLVQAGGSLRLSCAASGSIFKYNAMGWYRQAPGKERELVAAITYSGGSTYYADSVKGRFTISRDNAKNTVYLQMNSLKPEDTAVYYCNAYRRFSAFDYWGQGTQVTVSS
polyreactivity (PSR sort gate): high polyreactivity

QVQLVESGGGLVQAGGSLRLSCAASGSIFKYNAMGWYRQAPGKERELVATITSSGSTTYYADSVKGRFTISRDNAKYTVYLQMNSLKPEDTAVYYCNARYSYRRDYWGQGTEVTVSS
polyreactivity (PSR sort gate): high polyreactivity

QVQLVESGGGLVQAGGSLRLSCAASGSIFKYNTMGWYIQAPGKERELVATISGGGRTYYADSVKGRFTISRDNAKNTVYLQMNSLKPEDTAVYYCAARKRGTFTYDYWGQGTQVTVSS
polyreactivity (PSR sort gate): high polyreactivity

QVQLVESGGGLVQAGGSLRLSCAASGSIFKYNTMGWYRQAPGKERELVAAISSGGRTYYADSVKGRFTISRDNAKNSVYLQMNSLKPEDTAVYYCAARWSFFKTTHRNNYWGQGTQVTVSS
polyreactivity (PSR sort gate): high polyreactivity

QVQLVESGGGLVQAGGSLRLSCAASGSIFKYYAMGWYRQAPGKERELVAAIDWSGGNTYADSVKGRFTISRDNAKNTVYLQMNSLKPEDTAVYYCAADAFAVYRITSYNGSDSWGQGTQVTVSS
polyreactivity (PSR sort gate): high polyreactivity

QVQLVESGGGLVQAGGSLRLSCAASGSIFKYYAMGWYRQAPGKERELVAAISFSGGSTYYADSVKGRFTISRDNAKNTVYLQMNSLKPEDTAVYYCAVLGVWGYGYWGQGTQVTVSS
polyreactivity (PSR sort gate): high polyreactivity

QVQLVESGGGLVQAGGSLRLSCAASGSIFKYYAMGWYRQAPGKERELVAAISSGGRTYYADSVKGRFTISRDNAKNTVYLQMNSLKPEDTAVYYCNRGTVNSWARGYWGQGTQVTVSS
polyreactivity (PSR sort gate): high polyreactivity

QVQLVESGGGLVQAGGSLRLSCAASGSIFKYYAMGWYRQAPGKERELVAAISYSGGRTYYADSVKGRFTISRDNAKNTVYLQMNSLKPEDTAVYYCNAELYPWPGVVRYNYWGQGTQVTVSS
polyreactivity (PSR sort gate): high polyreactivity

QVQLVESGGGLVQAGGSLRLSCAASGSIFKYYAMGWYRQAPGKERELVAAITSGGSTSYADSVKGRFTISRDNAKNTVYLQMNSLKPEDTAVYYCAASGNSYRLRYWWSELDYWGQGTQVTVSS
polyreactivity (PSR sort gate): high polyreactivity
